In patent publication US20120208765:

Experiments:
human agrinC44 y4z8 = target: T1, human agrinC44 y4z8
T1 chain: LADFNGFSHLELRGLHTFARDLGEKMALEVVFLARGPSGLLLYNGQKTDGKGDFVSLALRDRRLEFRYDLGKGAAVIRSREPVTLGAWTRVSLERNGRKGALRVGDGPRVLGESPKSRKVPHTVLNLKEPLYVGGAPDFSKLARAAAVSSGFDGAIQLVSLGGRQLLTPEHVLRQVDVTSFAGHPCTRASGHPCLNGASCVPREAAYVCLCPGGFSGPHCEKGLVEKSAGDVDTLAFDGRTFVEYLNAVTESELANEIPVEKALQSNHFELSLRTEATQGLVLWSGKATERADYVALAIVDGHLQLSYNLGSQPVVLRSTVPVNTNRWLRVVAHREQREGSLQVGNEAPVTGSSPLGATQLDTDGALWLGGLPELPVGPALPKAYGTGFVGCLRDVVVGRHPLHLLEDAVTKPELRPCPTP

[1] = target: T2, neurotrypsin-resistant human agrin C44 y0z8K/A (h)
T2 chain: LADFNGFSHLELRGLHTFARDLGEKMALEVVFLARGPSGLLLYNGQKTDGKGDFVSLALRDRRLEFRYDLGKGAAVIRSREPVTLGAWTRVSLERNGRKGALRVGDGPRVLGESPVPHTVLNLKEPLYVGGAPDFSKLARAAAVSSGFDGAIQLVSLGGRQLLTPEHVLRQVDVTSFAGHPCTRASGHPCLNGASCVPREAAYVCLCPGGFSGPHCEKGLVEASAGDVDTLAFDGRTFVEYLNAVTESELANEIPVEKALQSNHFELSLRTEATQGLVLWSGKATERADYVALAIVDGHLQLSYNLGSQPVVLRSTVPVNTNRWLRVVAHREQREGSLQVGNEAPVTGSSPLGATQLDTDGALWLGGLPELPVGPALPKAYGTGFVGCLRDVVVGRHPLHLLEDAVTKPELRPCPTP

[2] = target: T3, neurotrypsin-resistant human agrin C44 y4z0K/A
T3 chain: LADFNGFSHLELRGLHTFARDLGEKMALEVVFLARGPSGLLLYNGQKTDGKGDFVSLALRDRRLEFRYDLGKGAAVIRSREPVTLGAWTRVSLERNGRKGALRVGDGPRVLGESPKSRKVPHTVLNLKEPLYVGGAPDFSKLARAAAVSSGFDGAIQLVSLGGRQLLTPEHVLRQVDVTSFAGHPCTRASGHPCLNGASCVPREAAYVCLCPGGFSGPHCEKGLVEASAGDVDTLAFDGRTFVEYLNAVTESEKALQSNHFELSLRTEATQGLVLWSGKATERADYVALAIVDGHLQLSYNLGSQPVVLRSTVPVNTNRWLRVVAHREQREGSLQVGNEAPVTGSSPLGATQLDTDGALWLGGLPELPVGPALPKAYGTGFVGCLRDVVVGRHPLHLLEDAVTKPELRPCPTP

[3] = target: T4, neurotrypsin-resistant human agrin C44 y4z8K/A with N-terminal His8 tag (C44K/A)
T4 chain: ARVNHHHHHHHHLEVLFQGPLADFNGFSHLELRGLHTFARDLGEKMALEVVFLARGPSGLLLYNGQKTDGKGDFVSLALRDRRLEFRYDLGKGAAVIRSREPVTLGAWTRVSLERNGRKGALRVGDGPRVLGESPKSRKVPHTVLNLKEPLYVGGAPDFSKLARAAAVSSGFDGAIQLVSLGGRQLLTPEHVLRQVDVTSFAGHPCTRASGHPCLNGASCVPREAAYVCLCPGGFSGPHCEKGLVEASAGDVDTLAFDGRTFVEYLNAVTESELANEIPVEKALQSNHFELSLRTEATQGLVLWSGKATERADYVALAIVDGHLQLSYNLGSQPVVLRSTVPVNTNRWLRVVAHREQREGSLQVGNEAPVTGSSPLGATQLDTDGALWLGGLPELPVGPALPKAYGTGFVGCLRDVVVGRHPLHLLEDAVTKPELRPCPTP

[4] = target: T5, neurotrypsin-resistant mouse agrin C44 y0z8K/A (m)
T5 chain: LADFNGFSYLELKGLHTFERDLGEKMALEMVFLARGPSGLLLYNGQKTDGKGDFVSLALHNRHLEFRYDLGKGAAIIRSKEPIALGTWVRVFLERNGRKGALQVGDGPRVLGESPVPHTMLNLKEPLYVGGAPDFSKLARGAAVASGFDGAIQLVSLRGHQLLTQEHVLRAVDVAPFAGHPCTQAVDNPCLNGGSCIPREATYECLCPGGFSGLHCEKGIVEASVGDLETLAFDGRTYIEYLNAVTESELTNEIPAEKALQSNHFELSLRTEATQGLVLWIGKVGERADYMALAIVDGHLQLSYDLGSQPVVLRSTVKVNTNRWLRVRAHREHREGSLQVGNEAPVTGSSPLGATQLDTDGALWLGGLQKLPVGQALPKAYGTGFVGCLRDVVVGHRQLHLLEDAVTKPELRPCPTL

[5] = target: T6, neurotrypsin-resistant mouse agrin C44 y4z8K/A (m)
T6 chain: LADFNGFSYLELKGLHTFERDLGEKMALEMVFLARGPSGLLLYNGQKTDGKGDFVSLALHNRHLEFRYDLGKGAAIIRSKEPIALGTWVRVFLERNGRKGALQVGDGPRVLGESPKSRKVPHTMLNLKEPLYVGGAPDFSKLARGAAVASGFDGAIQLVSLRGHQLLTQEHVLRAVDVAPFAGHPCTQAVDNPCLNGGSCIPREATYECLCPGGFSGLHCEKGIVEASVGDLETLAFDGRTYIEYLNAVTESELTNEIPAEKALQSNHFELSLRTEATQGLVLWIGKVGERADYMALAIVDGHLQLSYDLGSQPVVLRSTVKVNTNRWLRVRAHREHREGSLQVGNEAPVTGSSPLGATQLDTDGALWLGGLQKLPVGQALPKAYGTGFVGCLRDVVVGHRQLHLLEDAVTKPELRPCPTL

B1: human neurotrypsin (protein)
chain: FDSVLNDSLHHSHRHSPPAGPHYPYYLPTQQRPPRTRPPPPLPRFPRPPRALPAQRPHALQAGHTPRPHPWGCPAGEPWVSVTDFGAPCLRWAEVPPFLERSPPASWAQLRGQRHNFCRSPDGAGRPWCFYGDARGKVDWGYCDCRHGSVRLRGGKNEFEGTVEVYASGVWGTVCSSHWDDSDASVICHQLQLGGKGIAKQTPFSGLGLIPIYWSNVRCRGDEENILLCEKDIWQGGVCPQKMAAAVTCSFSHGPTFPIIRLAGGSSVHEGRVELYHAGQWGTVCDDQWDDADAEVICRQLGLSGIAKAWHQAYFGEGSGPVMLDEVRCTGNELSIEQCPKSSWGEHNCGHKEDAGVSCTPLTDGVIRLAGGKGSHEGRLEVYYRGQWGTVCDDGWTELNTYVVCRQLGFKYGKQASANHFEESTGPIWLDDVSCSGKETRFLQCSRRQWGRHDCSHREDVSIACYPGGEGHRLSLGFPVRLMDGENKKEGRVEVFINGQWGTICDDGWTDKDAAVICRQLGYKGPARARTMAYFGEGKGPIHVDNVKCTGNERSLADCIKQDIGRHNCRHSEDAGVICDYFGKKASGNSNKESLSSVCGLRLLHRRQKRIIGGKNSLRGGWPWQVSLRLKSSHGDGRLLCGATLLSSCWVLTAAHCFKRYGNSTRSYAVRVGDYHTLVPEEFEEEIGVQQIVIHREYRPDRSDYDIALVRLQGPEEQCARFSSHVLPACLPLWRERPQKTASNCYITGWGDTGRAYSRTLQQAAIPLLPKRFCEERYKGRFTGRMLCAGNLHEHKRVDSCQGDSGGPLMCERPGESWVVYGVTSWGYGCGVKDSPGVYTKVSAFVPWIKSVTKL
- proteolytic digestion of the agrin fragment by human neurotrypsin, SDS-PAGE (Sypro ruby); control substrate with intact β-cleavage site, cleavage implied (human agrinC44 y4z8): The mutation K to A in the β-cleavage site efficiently abolishes a cleavage of the agrin fragment
- proteolytic digestion by human neurotrypsin, SDS-PAGE (FIG. 11) [1]: the C44K/A-fragments as shown in the FIGS. 2b and 7-10 are not digested by neurotrypsin
- proteolytic digestion by human neurotrypsin, SDS-PAGE (FIG. 11) [2]: the C44K/A-fragments as shown in the FIGS. 2b and 7-10 are not digested by neurotrypsin
- proteolytic digestion by human neurotrypsin, SDS-PAGE (FIG. 11) [3]: the C44K/A-fragments as shown in the FIGS. 2b and 7-10 are not digested by neurotrypsin
- proteolytic digestion of the agrin fragment by human neurotrypsin, SDS-PAGE (Sypro ruby) [3]: The mutation K to A in the β-cleavage site efficiently abolishes a cleavage of the agrin fragment
- proteolytic digestion by human neurotrypsin, SDS-PAGE (FIG. 11) [4]: the C44K/A-fragments as shown in the FIGS. 2b and 7-10 are not digested by neurotrypsin
- proteolytic digestion by human neurotrypsin, SDS-PAGE (FIG. 11) [5]: the C44K/A-fragments as shown in the FIGS. 2b and 7-10 are not digested by neurotrypsin
